# Test results taken from the supplement of paper PMC11865577.
# Assays:
# Test in all cases: pull-down binding Z-score (relative to library population); higher = stronger binding
# [1] = system: G-clamp-N3 (biotin conjugate); settings: RNA library: Library-1 (pre-miRNA loops + repeats)
# Procedure, shortened: (§1)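 Streptavidin beads bearing 100 pmol of a biotin-conjugated small molecule were incubated for 60 min at 25 °C with 1 μg of heat-folded, Cy5- or Cy3-end-labelled RNA library in phosphate/NaCl/KCl buffer. Hot SDS eluted the RNA that stayed bound after three washes, and this RNA was hybridised for 20 h at 55.5 °C to a DNA barcode microarray. Binding was expressed as a Z-score against the library mean and standard deviation, after subtraction of a beads-only signal and trimmed averaging of barcoded replicate probes.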
# [2] = system: TO-N3-2 (biotin conjugate); settings: RNA library: Library-2
# Procedure, shortened: as §1
# [3] = system: TO-3-N3-2 (biotin conjugate); settings: RNA library: Library-2
# Procedure, shortened: as §1
# TO-N3 (biotin conjugate) = settings: RNA library: Library-2
# Procedure, shortened: as §1
# [4] = system: TO-3-N3 (biotin conjugate); settings: RNA library: Library-2
# Procedure, shortened: as §1
Sequence,pull-down binding Z-score [1],pull-down binding Z-score [2],pull-down binding Z-score [3],pull-down binding Z-score (TO-N3 (biotin conjugate)),pull-down binding Z-score [4]
GUGGACAGAGGCAAAACUCUAACUUC [hsa-mir-6078],-1.45,0.491,-0.41,0.0919,-0.31
CAGCCUGGGGCAUCGGUUG [hsa-mir-5572],-0.0198,1.02,1.31,2.01,2.41
CAGUACUGGUCUUAGACUG [hsa-mir-554],0.887,0.25,0.172,0.368,0.477
UUUUAAUUUUUUUAAAA [hsa-mir-3606],-1.03,-1.39,-0.175,-0.183,0.211
AUUGCAUGUUCUGGUGGUACCCAUGCAAU [hsa-mir-33a],-0.215,0.382,0.0325,0.127,0.18
GGGGUGGCUGCGGGCCUUCUGAAGGUCUCCC [hsa-mir-662],0.76,1.24,0.448,0.946,0.427
CUGUCCCCUGCCACUGGGUGACC [hsa-mir-7114],-0.449,0.894,0.144,0.471,0.262
UCCCCUAGCGCGCCUUCUGGAGA [hsa-mir-3188],1.12,0.507,-0.0116,-0.0603,-0.271
UCCAGUGUGGCUCGGAGGCUGGA [hsa-mir-139],3.31,1.18,0.381,1.23,0.91
GGGGCUGGCUGGGUCUGGUAGUGGGCAUCAGCUGGCCCU [hsa-mir-1207],2,1.22,1.51,2.6,2.53
GGGCCGUGCACCCGUGGGCCCC [hsa-mir-1915],1.73,1.28,0.0124,0.335,-0.204
GCAGAGAAGACAGUGAGCUUGCCAGUUCUGGUUUCCAACACUUCCUUUCCUGCG [hsa-mir-3911],-1.12,1.3,0.236,0.975,0.56
GUUUGAUAGUUUAGACACAAAC [hsa-mir-3591],0.0903,-0.389,0.11,0.263,0.44
CAGCAGCAGCAGCAGCAGCAGCAGCAGCAGCAGCAGCAGCAGCAGCAG [r(CAG)16],1.2,1.29,-0.0193,1.6,0.922
AUUGGAUGGAGUCAGGUCUCUAAU [hsa-mir-200b],0.359,0.568,0.101,0.26,-0.126
UGGAAGGAAUGGGAUCUACUUCCA [hsa-mir-3612],0.981,-0.214,0.46,0.285,0.389
GGCUGCAGGCCCGGCCCCUCUC [hsa-mir-6787],0.112,1.59,0.126,1.1,0.378
UUAAAUGUGUCAUUUAAAAAUUCAG [hsa-mir-1972-1_1972-2],-1.87,-0.257,0.161,-0.138,-0.0749
CAGGCUGCUAAACAACAGAACGAGCACUG [hsa-mir-378f],0.125,0.421,-0.122,-0.0846,-0.22

Sequence,pull-down binding Z-score [1],pull-down binding Z-score [2],pull-down binding Z-score [3],pull-down binding Z-score (TO-N3 (biotin conjugate)),pull-down binding Z-score [4]
AGCGCGAAAGU [hsa-mir-1539],0.0302,0.55,0.0743,0.054,-0.0926
CCCAGCUUUGUGACUGUAAGUGUUGGA [hsa-mir-184],0.351,0.734,0.088,0.723,0.669
CUCUGCUGUGUAAAUAGUUCUGAGUAGU [hsa-mir-454],-0.424,0.574,0.0557,0.186,-0.17
CUCUGAUGUAAUUAGGU [hsa-mir-563],-1.2,-0.397,-0.321,-0.642,-0.504
CUGUUCAGGACAAUGCCGUUGUACA [hsa-mir-199a-2],0.637,0.838,-0.27,0.16,-0.355
UCUGCAGGUUCGCACUGAUGCCUGCUCG [hsa-mir-6726],0.44,0.569,-0.102,0.309,0.0628
CUGAUUCAGAAAGAUCAUCGG [hsa-mir-127],-0.634,0.226,0.0704,-0.346,-0.444
GUCAGGUGAUGGUGAUAAGGUCAAGGCCUG [hsa-mir-6853],0.547,1.03,-0.0266,0.388,-0.0611
UCCACAAGGAGGGGAUGACCCUUGUGGG [hsa-mir-4437],-0.125,1.37,3.06,3.14,4.12
GCCUCCUGGAUCUCUAGGUCUCAGGGC [hsa-mir-6744],-0.189,0.118,-0.302,-0.272,-0.282
GAAGCUGUGAAGCCACAGAUGGGCUUU [hsa-mir-30a],0.763,0.641,0.0568,0.224,-0.0778
UUCAGCCUAAAGCAAUGAGAAGCCUCUGAAAGGCUGA [hsa-mir-1827],-0.0259,0.76,-0.0588,0.212,-0.198
AUAUAAAAUGCAAUUA [hsa-mir-3945],-1.21,-0.448,0.327,0.0171,0.256
GAGGUCUUCCCAUGCUAAGAAGUCCUC [hsa-mir-2116],-0.641,-0.154,0.115,1.19,1.51
CAAUUUGAGACCAAU [hsa-mir-1285-2],-1.39,0.218,0.444,-0.0272,-0.0235
CUGGCCAUCAGUGUGGGCUAAC [hsa-mir-6732],-0.237,0.569,-0.117,0.33,-0.0637
UUCAGAGUCAAUAUAAUUUUCUAG [hsa-mir-29a],0.0825,-0.467,0.27,0.485,0.749
CGGACACCCGGCCUCCACUUUCUGUGGCAGGUACCUCCUCCA [hsa-mir-4505],0.149,1.47,0.209,1.05,0.675
GAGACUUUAAAAGCGUCUC [hsa-mir-3926-1],0.184,-1.01,-0.343,-0.993,-0.747

Sequence,pull-down binding Z-score [1],pull-down binding Z-score [2],pull-down binding Z-score [3],pull-down binding Z-score (TO-N3 (biotin conjugate)),pull-down binding Z-score [4]
CAGUAUGAAUGAAUUCAUGAUACUG [hsa-mir-3607],0.669,-0.531,-0.718,-0.881,-0.768
CUUCAGCCCCAGGAAGCCUUGGUCGGGGGCAGGAG [hsa-mir-647],0.744,0.849,-0.171,0.594,0.309
GCAAGGUUGUUGGUGAUAUGGCUUCCUCUC [hsa-mir-4685],0.872,0.538,0.0915,0.0508,-0.179
GGGUUCAAUAGAUUGCUUUAGCUGAAGCAAGCCU [hsa-mir-8054],-0.803,-0.201,0.131,0.00977,0.125
GGCUGCUGGAUUGAAUUAGCUGCA [hsa-mir-1286],-0.74,1.15,0.133,0.506,0.023
GGCUGGGCAGGCGGAAAGAGGUCUGAACUGCCUCUGCC [hsa-mir-6791],0.578,0.358,-0.0685,-0.0487,-0.139
UGCUGUUGGAGACUCGAUUGUUGGUGACAGCGAAAGAACGAUAACAAA [hsa-mir-3655],-1.76,1.04,-0.149,0.231,-0.405
UCCCAGCCACUCUGGAGG [hsa-mir-4419b],0.653,0.631,-0.194,0.44,0.274
CUCACUGCAGAAUUAUUUUGAG [hsa-mir-4524a],0.934,-0.99,-0.267,-0.869,-0.62
AUAGUUGUGGGGUAGUGAUUUUACCCUGUUCAGGAGAUAACUAU [hsa-let-7f-1],-0.471,0.224,0.657,0.842,0.676
UAUGCCUACAAAAUCCCUCCAGACUGGCAUA [hsa-mir-4666a],-0.858,-0.743,-0.346,-0.78,-0.599
ACAAUUAUGAAAGAAAAGAAAUUGU [hsa-mir-3611],0.163,-0.566,0.327,-0.636,-0.386
CCUUCGCUUUAUUUGUGACGAAUC [hsa-mir-154],-0.922,-0.185,-0.374,-0.676,-0.799
AGAGGCUGUGGGCAGGGGGAGAUGUGAAGGAAAGAACUAGGACCCAUUCAUCCACU [hsa-mir-6807],0.739,2.79,2.57,2.97,2.51
UUUAUGCCUGUUAGCAUGAAAAAAGAGGCUGAGAA [hsa-mir-7515],-0.395,0.0418,0.165,-0.368,-0.5
UGUAAAAUGUAAUAACAUUUCUUAUGUUUAAAACACUUUACA [hsa-mir-4801],-0.257,-1.14,-0.401,-0.783,-0.755
CUGUCUGUUGUCUAAGAAAAGAUCG [hsa-mir-517c_517b],0.565,0.202,0.294,-0.0242,-0.481
GUAUGAGUGGUGUGGAGUCUUCAUAA [hsa-mir-9-1],-0.511,0.298,-0.08,0.292,0.179
